Test results as given in paper PMC4836650 (RNA, 2016).

Target: L7Ae (Pyrococcus furiosus, UniProt Q8U160 1-123)
Test: SEC

binding result: binds
B1: Nop5 (L148K, V223E) (natural protein)
chain: MKAFISENVRGIYAFDENGNLIEKRYFTDKPEKVLDQLLKGEITKDLEELLNSLKEKGYDEFVFEHPELSRRAKELGFSATTEFPNIAGERLRSNPEEFLGENWFEEYYKVGVALTRMRIQEQSGARDKMVIQAIEALDDVDKVINLKVARLREWYSLHFPELDELLPKHPQYVAFVKTVGHRDNINEEVLRELGLSEEKIKKILEAKEKTMGAWMDQTDIEEVRQLAEEIDRLYQLRKKLEDYIDRAMDDVAPNLKALVGAKLAARLISLAGGLRELAMMPSSTIQVLGAEKALFRHLRTGAKPPKHGVIYQYPAINRSPWWQRGKIARALAGKLAIAARVDYFSGEYIAEELKKELEARIREIKEKYPKPPKRKREERKGKKPWKKDKKKKKKKEKPRRR
